Measured values published in the RNAGym collection of RNA variant scans (doi:10.1021/acssynbio.7b00057).

B1: Pistol ribozyme (parent)
chain: GGGUCGUUGUUCCAUAAUCGCGUGGAUAUGGCACGCAAGUUUCUACCGGGCACCGUAAAUGUCCGACUGGAGCCGUUCGGGCGGCUAUAAACAGACCUCAGGCCCGAAGCGUGGCGGCACCUGCCGCCGGUGGUAAAAAAGAUCGGAAGAGCACACGUCU

Variants of: B1
Assay: aptazyme ON/OFF ratio, guanine; higher = stronger switching; co-transcriptional cleavage with and without guanine

Question: For U8C U10A U11C C12G, which “aptazyme ON/OFF ratio” value is on record?
Answer: 1.17

Question: With U8C U10A U11C C12U as the variant, how does the “aptazyme ON/OFF ratio” value read?
Answer: 1.02

Question: With U8C G9U U10C U11C C12U C13U as the variant, how does the “aptazyme ON/OFF ratio” value read?
Answer: 1.07

Question: For U8C G9U U10C U11C C12U C13G, which “aptazyme ON/OFF ratio” value is on record?
Answer: 1.05

Question: Which “aptazyme ON/OFF ratio” value does the source give for U8C G9U U10C U11C C12U C13A here?
Answer: 1.07

Question: For U8C G9U U11A C12G C13U, which “aptazyme ON/OFF ratio” value is on record?
Answer: 1.22

Question: With U8C G9U U11A C12G C13G as the variant, how does the “aptazyme ON/OFF ratio” value read?
Answer: 1.12

Question: For U8C G9U U11A C12G C13A, which “aptazyme ON/OFF ratio” value is on record?
Answer: 1.13

Question: Which “aptazyme ON/OFF ratio” value does the source give for U8C U10C U11A C12U C13A here?
Answer: 1.26

Question: Which “aptazyme ON/OFF ratio” value does the source give for U8C U10C U11A C12U C13U here?
Answer: 1.35

Question: Which “aptazyme ON/OFF ratio” value does the source give for U8C U10C U11A C12U C13G here?
Answer: 1.23

Question: For U8C G9U U10G C12G, which “aptazyme ON/OFF ratio” value is on record?
Answer: 1.6

Question: Which “aptazyme ON/OFF ratio” value does the source give for U8C G9U U10G C12A here?
Answer: 1.66

Question: With U8C G9U U10G C12U as the variant, how does the “aptazyme ON/OFF ratio” value read?
Answer: 1.35

Question: Which “aptazyme ON/OFF ratio” value does the source give for U8C U10A U11G C12G here?
Answer: 1.31

Question: With U8C U10A U11G C12U as the variant, how does the “aptazyme ON/OFF ratio” value read?
Answer: 1.33

Question: With U8C U10A U11G C12A as the variant, how does the “aptazyme ON/OFF ratio” value read?
Answer: 1.06

Question: For U8C G9U U10G C13U, which “aptazyme ON/OFF ratio” value is on record?
Answer: 1.67

Question: Which “aptazyme ON/OFF ratio” value does the source give for U8C G9U U10G C13A here?
Answer: 1.42

Question: For U8C G9U U10G C13G, which “aptazyme ON/OFF ratio” value is on record?
Answer: 1.21

Question: For U8C G9U U10G U11C C12A C13G, which “aptazyme ON/OFF ratio” value is on record?
Answer: 1.19

Question: Which “aptazyme ON/OFF ratio” value does the source give for U8C G9U U10G U11C C12A C13U here?
Answer: 1.52

Question: Which “aptazyme ON/OFF ratio” value does the source give for U8C G9U U10G U11C C12A C13A here?
Answer: 1.22

Question: For U8C U10C U11A C13U, which “aptazyme ON/OFF ratio” value is on record?
Answer: 1.28

Question: For U8C U10C U11A C13G, which “aptazyme ON/OFF ratio” value is on record?
Answer: 1.23

Question: Which “aptazyme ON/OFF ratio” value does the source give for U8C U10C U11A C13A here?
Answer: 1.32

Question: Which “aptazyme ON/OFF ratio” value does the source give for U8C G9U U10C U11C C13U here?
Answer: 1.04

Question: With U8C G9U U10C U11C C13G as the variant, how does the “aptazyme ON/OFF ratio” value read?
Answer: 1.02

Question: With U8C G9U U10C U11C C13A as the variant, how does the “aptazyme ON/OFF ratio” value read?
Answer: 1.03

Question: With U8C G9U U11G C12U C13A as the variant, how does the “aptazyme ON/OFF ratio” value read?
Answer: 1.16

Question: With U8C G9U U11G C12U C13U as the variant, how does the “aptazyme ON/OFF ratio” value read?
Answer: 1.14

Question: With U8C G9U U11G C12U C13G as the variant, how does the “aptazyme ON/OFF ratio” value read?
Answer: 1.15

Question: With U8C G9U U10C U11C C12U as the variant, how does the “aptazyme ON/OFF ratio” value read?
Answer: 1.06

Question: With U8C G9U U10C U11C C12A as the variant, how does the “aptazyme ON/OFF ratio” value read?
Answer: 1.03

Question: For U8C G9U U10C U11C C12G, which “aptazyme ON/OFF ratio” value is on record?
Answer: 1.09

Question: Which “aptazyme ON/OFF ratio” value does the source give for U8C G9U U10C U11C C12G C13A here?
Answer: 1.06

Question: With U8C G9U U10C U11C C12G C13U as the variant, how does the “aptazyme ON/OFF ratio” value read?
Answer: 1.07

Question: Which “aptazyme ON/OFF ratio” value does the source give for U8C G9U U10C U11C C12G C13G here?
Answer: 1.15

Question: With U8C U10C U11C C12G C13U as the variant, how does the “aptazyme ON/OFF ratio” value read?
Answer: 1.3

Question: With U8C U10C U11C C12G C13A as the variant, how does the “aptazyme ON/OFF ratio” value read?
Answer: 1.29

Question: With U8C U10C U11C C12G C13G as the variant, how does the “aptazyme ON/OFF ratio” value read?
Answer: 1.35

Question: For U8C U10C U11C C12U, which “aptazyme ON/OFF ratio” value is on record?
Answer: 1.44

Question: For U8C U10C U11C C12A, which “aptazyme ON/OFF ratio” value is on record?
Answer: 1.25

Question: For U8C U10C U11C C12G, which “aptazyme ON/OFF ratio” value is on record?
Answer: 1.18

Question: Which “aptazyme ON/OFF ratio” value does the source give for U8C G9U U10C U11G C13G here?
Answer: 1.2

Question: With U8C G9U U10C U11G C13A as the variant, how does the “aptazyme ON/OFF ratio” value read?
Answer: 1.23

Question: With U8C G9U U10C U11G C13U as the variant, how does the “aptazyme ON/OFF ratio” value read?
Answer: 1.28

Question: For U8C U10A C12A C13A, which “aptazyme ON/OFF ratio” value is on record?
Answer: 1.26

Question: For U8C U10A C12A C13G, which “aptazyme ON/OFF ratio” value is on record?
Answer: 1.1

Question: With U8C U10A C12A C13U as the variant, how does the “aptazyme ON/OFF ratio” value read?
Answer: 1.18

Question: With U8C G9U U11A as the variant, how does the “aptazyme ON/OFF ratio” value read?
Answer: 1.35

Question: For U8C G9U U11C, which “aptazyme ON/OFF ratio” value is on record?
Answer: 1.07

Question: With U8C G9U U11G as the variant, how does the “aptazyme ON/OFF ratio” value read?
Answer: 1.48

Question: With U8C U10A U11C C12U C13A as the variant, how does the “aptazyme ON/OFF ratio” value read?
Answer: 1.06

Question: With U8C U10A U11C C12U C13U as the variant, how does the “aptazyme ON/OFF ratio” value read?
Answer: 1.06

Question: With U8C U10A U11C C12U C13G as the variant, how does the “aptazyme ON/OFF ratio” value read?
Answer: 1.07

Question: With U8C U10A C12G C13A as the variant, how does the “aptazyme ON/OFF ratio” value read?
Answer: 1.17

Question: Which “aptazyme ON/OFF ratio” value does the source give for U8C U10A C12G C13U here?
Answer: 1.26

Question: With U8C U10A C12G C13G as the variant, how does the “aptazyme ON/OFF ratio” value read?
Answer: 1.14

Question: For U8C U10C U11G C12A C13A, which “aptazyme ON/OFF ratio” value is on record?
Answer: 1.17

Question: For U8C U10C U11G C12A C13U, which “aptazyme ON/OFF ratio” value is on record?
Answer: 1.33

Question: For U8C U10C U11G C12A C13G, which “aptazyme ON/OFF ratio” value is on record?
Answer: 1.21

Question: Which “aptazyme ON/OFF ratio” value does the source give for U8C G9U U11G C13U here?
Answer: 1.23

Question: With U8C G9U U11G C13G as the variant, how does the “aptazyme ON/OFF ratio” value read?
Answer: 1.02

Question: For U8C G9U U11G C13A, which “aptazyme ON/OFF ratio” value is on record?
Answer: 1.24

Question: With U8C G9U U10C U11A C12U C13G as the variant, how does the “aptazyme ON/OFF ratio” value read?
Answer: 1.09

Question: For U8C G9U U10C U11A C12U C13A, which “aptazyme ON/OFF ratio” value is on record?
Answer: 1.13

Question: Which “aptazyme ON/OFF ratio” value does the source give for U8C G9U U10C U11A C12U C13U here?
Answer: 1.2

Question: Which “aptazyme ON/OFF ratio” value does the source give for U8C U10A U11G here?
Answer: 1.29

Question: For U8C U10A U11C, which “aptazyme ON/OFF ratio” value is on record?
Answer: 1.02

Question: With U8C U10A U11A as the variant, how does the “aptazyme ON/OFF ratio” value read?
Answer: 1.18

Question: With U8C G9U U11A C12A C13U as the variant, how does the “aptazyme ON/OFF ratio” value read?
Answer: 1.34

Question: Which “aptazyme ON/OFF ratio” value does the source give for U8C G9U U11A C12A C13G here?
Answer: 1.16

Question: Which “aptazyme ON/OFF ratio” value does the source give for U8C G9U U11A C12A C13A here?
Answer: 1.26

Question: With U8C U10G U11A C12G as the variant, how does the “aptazyme ON/OFF ratio” value read?
Answer: 1.23

Question: For U8C U10G U11A C12A, which “aptazyme ON/OFF ratio” value is on record?
Answer: 1.32

Question: For U8C U10G U11A C12U, which “aptazyme ON/OFF ratio” value is on record?
Answer: 1.08

Question: For U8C U10A U11A C12G C13G, which “aptazyme ON/OFF ratio” value is on record?
Answer: 1.35

Question: For U8C U10A U11A C12G C13U, which “aptazyme ON/OFF ratio” value is on record?
Answer: 1.28

Question: With U8C U10A U11A C12G C13A as the variant, how does the “aptazyme ON/OFF ratio” value read?
Answer: 1.15

Question: For U8C G9U U10G U11A C12A, which “aptazyme ON/OFF ratio” value is on record?
Answer: 1.56

Question: Which “aptazyme ON/OFF ratio” value does the source give for U8C G9U U10G U11A C12G here?
Answer: 1.22

Question: For U8C G9U U10G U11A C12U, which “aptazyme ON/OFF ratio” value is on record?
Answer: 1.04
